Data from the RNAGym collection of RNA variant scans (doi:10.1093/nar/gkz1192).

B1: CPEB3 Ribozyme (parent)
chain: UAACAGGGGGCCACAGCAGAAGCGUUCACGUCGCAGCCCCUGUCAGAUUCUGGUGAAUCUGCGAAUUCUGCUGUAUAUCUC

Variants of: B1
Experiment: self-cleavage, relative activity (ratio to wild type); higher = more cleavage; in vitro, sequencing
Summary of the method: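 After error-prone PCR and barcoding, CPEB3 ribozyme mutant libraries were transcribed with T7 RNA polymerase at 37°C for 5 hours, then given 15 min with DNase I before an EDTA stop, and they cleaved during both steps. Reverse transcription with template switching preceded Illumina sequencing. Relative activity divides a variant's cleaved/total read fraction by the unmutated ribozyme's. At least 5 reads were required per variant, and three batches were averaged.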

Variant | self-cleavage
A3G A56U | 0.64
A3G A56C | 0.8
A3G A56G | 0.77
A3G U41A | 0.3
A3G U41C | 0.98
A3G U41G | 0.17
A3G G52A | 1.14
A3G G52U | 1.14
A3G C23U | 0.38
A3G C23G | 0.33
A3G C23A | 0.22
A3G C62U | 0.39
A3G C62G | 0.32
A3G C62A | 0.59
A3G U49C | 0.49
A3G U49A | 0.69
A3G C37U | 0.85
A3G C37A | 0.36
A3G A64U | 0.45
A3G A64G | 0.92
A3G G46C | 0.39
A3G G46A | 0.13
A3G A75C | 1.07
A3G A75G | 1

Variant | self-cleavage
A3G A75U | 1.12
A3G G22A | 0.29
A3G G22U | 0.15
A3G U60A | 0.47
A3G U60C | 0.52
A3G U60G | 0.45
A3G C79U | 1
A3G C79A | 1.05
A3G G36U | 0.26
A3G G36A | 0.2
A3G A47G | 0.92
A3G A47U | 0.48
A3G A57C | 0.49
A3G A57G | 0.86
A3G A57U | 0.69
A3G G53C | 1.13
A3G G53A | 1.02
A3G C81G | 1.17
A3G U54G | 0.82
A3G U54C | 0.98
A3G U54A | 0.98
A3G U51A | 1
A3G U51C | 0.94
A3G U51G | 0.98

Variant | self-cleavage
A3G A21U | 0.49
A3G A21G | 0.73
A3G C40G | 0.5
A3G C40A | 0.32
A3G C40U | 0.64
A3G G7U | 0.45
A3G G7A | 0.47
A3G U26A | 0.9
A3G U26C | 0.65
A3G U43C | 0.49
A3G U43A | 0.99
A3G A77C | 1.03
A3G A77G | 1.03
A3G A77U | 0.99
A3G U31C | 0.84
A3G U31A | 0.61
A3G U31G | 0.76
A3G C12U | 1.22
A3G C12A | 1.16
A3G U66C | 0.4
A3G U66A | 0.64
A3G U66G | 0.62
A3G C17U | 0.85
A3G C17A | 0.33

Variant | self-cleavage
A3G C17G | 0.55
A3G G19U | 0.41
A3G C14A | 1.13
A3G C14U | 1.12
A3G A45U | 0.4
A3G A45G | 0.78
A3G G30A | 0.44
A3G C71G | 0.57
A3G C71U | 0.64
A3G C71A | 0.27
A3G G61A | 0.53
A3G G61U | 0.8
A3G G73A | 1.22
A3G C11G | 0.54
A3G C11U | 0.51
A3G C11A | 0.32
A3G C59U | 0.74
A3G C59A | 0.62
A3G U67C | 0.33
A3G U67A | 0.52
A3G C50U | 0.94
A3G C50A | 0.82
A3G C50G | 0.8
A3G G63A | 0.75

Variant | self-cleavage
A3G G63C | 1.06
A3G G63U | 1.12
A3G G55U | 1.12
A3G G70A | 0.69
A3G A20U | 0.41
A3G A20G | 0.86
A3G A20C | 0.75
A3G G9C | 0.6
A3G G9A | 0.53
A3G G9U | 0.34
A3G C44A | 0.42
A3G C39U | 0.64
A3G C39G | 0.34
A3G C39A | 0.05
A3G A28G | 0.72
A3G A28U | 0.89
A3G A28C | 0.73
A3G A65U | 0.25
A3G A65G | 0.55
A3G C38G | 1.02
A3G C38U | 0.83
A3G A15C | 0.95
A3G A15U | 0.78
A3G A15G | 0.84

Variant | self-cleavage
A3G U48G | 0.54
A3G U48A | 0.37
A3G U48C | 0.61
A3G C29A | 0.58
A3G C29U | 0.59
A3G C29G | 0.43
A3G A35C | 0.9
A3G A35G | 1.21
A3G A35U | 0.64
A3G U25C | 0.42
A3G U25A | 0.63
A3G U25G | 0.45
A3G A18U | 0.44
A3G A18G | 0.73
A3G A18C | 0.46
A3G C68A | 0.46
A3G C68U | 0.79
A3G C68G | 0.47
A3G G33C | 0.31
A3G G33U | 0.11
A3G G33A | 0.38
A3G C27G | 0.43
A3G C27A | 0.45
A3G C27U | 0.53

Variant | self-cleavage
A3G G16U | 0.62
A3G G16A | 0.38
A3G G16C | 0.47
A3G G6U | 0.57
A3G G6C | 0.77
A3G G6A | 0.59
A3G G8A | 0.37
A3G G8U | 0.34
A3G C4U | 1.11
A3G C4G | 1.15
A3G C4A | 1.17
A3G C34U | 0.25
A3G C34A | 0.2
A3G C34G | 0.43
A3G G10C | 0.35
A3G G10A | 0.46
A3G C32U | 0.45
A3G C32G | 0.17
A3G C32A | 0.14
A3G G24A | 0.6
A3G U58A | 0.43
A3G U58C | 0.54
A3G U58G | 0.39
